The source of these data is publication PMC10983988.

One may read the Kd as the equilibrium constant for the complex coming apart. Read a high Kd as weaker binding.

The data set concerns the target T1, m-TREX1 (Three Prime Repair Exonuclease 1, catalytic domain) (mouse, UniProt Q91XB0 1-242).
T1 sequence: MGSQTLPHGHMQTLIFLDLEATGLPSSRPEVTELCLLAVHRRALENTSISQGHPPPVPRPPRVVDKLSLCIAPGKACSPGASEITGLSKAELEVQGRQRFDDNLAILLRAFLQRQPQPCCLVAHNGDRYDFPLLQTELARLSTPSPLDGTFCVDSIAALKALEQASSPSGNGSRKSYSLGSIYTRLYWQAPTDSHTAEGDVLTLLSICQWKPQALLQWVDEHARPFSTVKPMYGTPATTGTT
Description: fluorescence polarization anisotropy. (In fluorescence polarisation assays a small probe gives low polarisation when free and higher when bound to something large.)

B1: U3 unprocessed (dsDNA)
DNA 1: AGTGAATTAGCCCTTCCAGT
DNA 2: ACTGGAAGGGCTAATTCACT
With B1, binding was put at a Kd of 118 ± 8.4 nM.

B2: U3 3'-processed (dsDNA)
DNA 1: AGTGAATTAGCCCTTCCA
DNA 2: ACTGGAAGGGCTAATTCACT
Regarding B2, the equilibrium dissociation constant (Kd) was 216 ± 4.6 nM.
